Numbering of substitutions follows the chain as printed. Numbers in names are those of the source.
B1: hSTIM1-WT EF-SAM domain (aa58 to 201) (domain or fragment)
chain: SEDEKLSFEAVRNIHKLMDDDANGDVDVEESDEFLREDLNYHDPTVKHSTFHGEDKLISVEDLWKAWKSSEVYNWTVDEVVQWLITYVELPQYEETFRKLQLSGHAMPRLAVTNTTMTGTVLKMTDRSHRQKLQLKALDTVLFG
B2: hSTIM1 EF-SAM domain (aa58 to 201) α9-mutant (V178A-L179A) (domain or fragment)
chain: B1 chain with V121A, L122A

Target: the molecule itself
Test: SEC-MALS

| Protein | stoichiometry N |
| --- | --- |
| B1 | ≥ 2 |
| B2 | ≥ 2 |

Source: article PMC11127010 (Proceedings of the National Academy of Sciences of the …, 2024)
